Reference: patent US20240010724A1 (Amgen, published 2024)
Where a chain is given by its changes, count along the chain named.

Key:
Assay in all cases: flow cytometry, transfected 293T cells
[1] = molecular target: T1, muCDH19(44-461)::huCDH19(464-772) (human/mouse chimera)
T1 construct: also called Hu EC5
T1 chain: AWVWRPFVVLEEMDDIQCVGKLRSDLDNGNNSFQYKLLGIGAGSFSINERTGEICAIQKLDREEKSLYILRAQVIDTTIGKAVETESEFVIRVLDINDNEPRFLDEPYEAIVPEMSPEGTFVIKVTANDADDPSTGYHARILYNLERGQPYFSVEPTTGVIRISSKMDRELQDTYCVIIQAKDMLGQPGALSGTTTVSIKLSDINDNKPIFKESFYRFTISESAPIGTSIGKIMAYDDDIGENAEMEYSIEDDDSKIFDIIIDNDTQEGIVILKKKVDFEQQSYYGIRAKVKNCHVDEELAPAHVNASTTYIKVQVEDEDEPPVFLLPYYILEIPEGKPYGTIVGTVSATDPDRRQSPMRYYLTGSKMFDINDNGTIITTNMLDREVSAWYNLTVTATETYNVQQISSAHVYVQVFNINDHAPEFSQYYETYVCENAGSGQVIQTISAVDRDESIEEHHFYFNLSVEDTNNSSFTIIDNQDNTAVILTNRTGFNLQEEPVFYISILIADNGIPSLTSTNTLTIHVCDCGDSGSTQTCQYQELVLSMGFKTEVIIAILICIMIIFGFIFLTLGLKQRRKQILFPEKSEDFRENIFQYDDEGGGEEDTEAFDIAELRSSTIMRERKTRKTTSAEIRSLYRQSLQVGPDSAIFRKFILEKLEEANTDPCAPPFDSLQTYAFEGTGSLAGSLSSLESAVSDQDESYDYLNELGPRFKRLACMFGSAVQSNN

[2] = molecular target: T2, muCDH19(44-139)::huCDH19(142-364)::muCDH19(363-770) (human/mouse chimera)
T2 construct: also called Hu EC2-3

[3] = molecular target: T3, huCDH19(44-141)::muCDH19(140-770) (human/mouse chimera)
T3 construct: also called Hu EC1

[4] = molecular target: T4, huCDH19(44-249)::muCDH19(248-770) (human/mouse chimera)
T4 construct: also called Hu EC1-2

[5] = molecular target: T5, muCDH19(44-139)::huCDH19(142-249):muCDH19(248-770) (human/mouse chimera)
T5 construct: also called Hu EC2
T5 chain: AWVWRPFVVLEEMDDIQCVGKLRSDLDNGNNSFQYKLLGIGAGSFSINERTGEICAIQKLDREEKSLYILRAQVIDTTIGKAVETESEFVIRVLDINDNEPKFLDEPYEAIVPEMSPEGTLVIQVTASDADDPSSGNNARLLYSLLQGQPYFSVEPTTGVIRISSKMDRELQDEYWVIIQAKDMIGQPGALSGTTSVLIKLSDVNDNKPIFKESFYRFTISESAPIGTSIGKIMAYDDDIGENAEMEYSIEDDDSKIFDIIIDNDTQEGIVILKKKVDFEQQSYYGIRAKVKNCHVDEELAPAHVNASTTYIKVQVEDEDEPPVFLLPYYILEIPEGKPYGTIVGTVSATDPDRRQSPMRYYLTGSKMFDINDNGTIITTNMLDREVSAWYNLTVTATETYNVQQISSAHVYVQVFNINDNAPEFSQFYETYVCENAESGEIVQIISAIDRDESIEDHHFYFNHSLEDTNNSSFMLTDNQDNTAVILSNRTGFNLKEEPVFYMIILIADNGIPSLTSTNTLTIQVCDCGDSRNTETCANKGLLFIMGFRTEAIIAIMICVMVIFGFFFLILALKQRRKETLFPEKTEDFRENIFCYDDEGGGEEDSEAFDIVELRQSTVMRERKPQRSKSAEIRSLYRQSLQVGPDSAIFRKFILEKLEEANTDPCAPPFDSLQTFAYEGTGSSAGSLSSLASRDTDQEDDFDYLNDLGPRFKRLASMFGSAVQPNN

[6] = molecular target: T6, muCDH19(44-362)::huCDH19(365-772) (human/mouse chimera)
T6 construct: also called Hu EC4-5
T6 chain: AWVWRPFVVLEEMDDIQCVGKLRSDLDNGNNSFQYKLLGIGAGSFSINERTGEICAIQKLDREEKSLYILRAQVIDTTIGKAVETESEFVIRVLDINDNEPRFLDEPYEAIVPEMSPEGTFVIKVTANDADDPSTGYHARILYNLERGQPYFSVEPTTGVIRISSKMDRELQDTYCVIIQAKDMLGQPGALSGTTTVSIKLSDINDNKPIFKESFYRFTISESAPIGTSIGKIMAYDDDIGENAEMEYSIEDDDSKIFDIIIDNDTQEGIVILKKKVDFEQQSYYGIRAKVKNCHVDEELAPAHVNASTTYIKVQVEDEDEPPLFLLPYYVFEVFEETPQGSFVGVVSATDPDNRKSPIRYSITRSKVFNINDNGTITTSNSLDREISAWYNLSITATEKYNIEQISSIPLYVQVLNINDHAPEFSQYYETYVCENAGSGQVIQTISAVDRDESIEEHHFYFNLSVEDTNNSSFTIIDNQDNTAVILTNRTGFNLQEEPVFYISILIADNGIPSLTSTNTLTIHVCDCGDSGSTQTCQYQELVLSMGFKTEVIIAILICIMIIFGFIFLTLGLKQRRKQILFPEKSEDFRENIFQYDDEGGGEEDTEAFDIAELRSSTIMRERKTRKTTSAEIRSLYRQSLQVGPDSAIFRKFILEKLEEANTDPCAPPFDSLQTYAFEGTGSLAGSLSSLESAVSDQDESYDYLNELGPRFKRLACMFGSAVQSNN

[7] = molecular target: T7, muCDH19(44-247)::huCDH19(250-364)::muCDH19(363-770) (human/mouse chimera)
T7 construct: also called Hu EC3

huCDH19(44-772) = molecular target: T8, huCDH19(44-772) (human, UniProt Q9H159 44-772)
T8 construct: also called Hu EC1-5

muCDH19(44-770) = molecular target: T9, muCDH19(44-770) (mouse)
T9 construct: also called Mu EC1-5
T9 chain: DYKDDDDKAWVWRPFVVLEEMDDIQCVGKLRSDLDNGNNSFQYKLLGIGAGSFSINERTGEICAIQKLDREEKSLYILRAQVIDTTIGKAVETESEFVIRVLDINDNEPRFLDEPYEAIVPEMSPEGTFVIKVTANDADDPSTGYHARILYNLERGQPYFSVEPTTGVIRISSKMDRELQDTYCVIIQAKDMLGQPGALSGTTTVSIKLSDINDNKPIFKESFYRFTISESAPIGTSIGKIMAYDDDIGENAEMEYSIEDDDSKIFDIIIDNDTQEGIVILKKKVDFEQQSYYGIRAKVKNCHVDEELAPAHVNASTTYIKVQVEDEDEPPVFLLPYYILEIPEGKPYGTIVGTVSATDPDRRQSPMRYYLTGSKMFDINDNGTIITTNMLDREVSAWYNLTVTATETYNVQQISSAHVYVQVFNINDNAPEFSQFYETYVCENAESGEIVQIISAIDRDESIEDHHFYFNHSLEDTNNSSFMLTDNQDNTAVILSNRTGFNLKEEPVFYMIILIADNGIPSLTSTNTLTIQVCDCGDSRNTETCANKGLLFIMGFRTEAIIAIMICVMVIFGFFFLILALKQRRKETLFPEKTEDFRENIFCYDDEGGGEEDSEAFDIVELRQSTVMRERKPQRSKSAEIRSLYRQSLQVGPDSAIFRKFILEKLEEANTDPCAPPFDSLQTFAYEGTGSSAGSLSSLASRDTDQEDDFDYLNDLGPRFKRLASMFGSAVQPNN

Measured: binding result

B1: anti-CDH19 antibody 14039 (antibody, human IgG1, lambda, V domains shown)
VH: QVQLVESGGGVVQPGGSLRLSCAASGFTFSSYGMHWVRQAPGKGLEWVAFIWYEGSNKYYAESVKDRFTISRDNSKNTLYLQMNSLRAEDTAVYYCARRAGIIGTIGYYYGMDVWGQGTTVTVSS
VL: SYELTQPPSVSVSPGQTASITCSGDRLGEKYTSWYQQRPGQSPLLVIYQDTKRPSGIPERFSGSNSGNTATLTISGTQAMDEADYYCQAWESSTVVFGGGTKLTVLG
binds: [1] | [2] | [3] | [4] | [5] | [6] | [7]

B2: anti-CDH19 antibody 14304 (antibody, V domains shown)
VH: B1 VH with E54D, E62D, N84K
VL: B1 VL with T32V, R38K, L44I, T51N, R53W, E91D
binds: [1] | [2] | huCDH19(44-772) | [3] | [4] | [5] | [6] | muCDH19(44-770) | [7]

B3: anti-CDH19 antibody 13589 (clone 4A9) (antibody, human IgG1, lambda, V domains shown)
VH: QVQLQESGPGLVKPSETLSLTCTVSGGSISGYYWSWIRQPPGKGLEWFAYFSYSGSTNYNPSLKSRVTLSVDTSKNQFSLKLSSVTAADTAVYYCARNWAFHFDFWGQGTLVTVSS
VL: QSVLTQPPSVSGAPGQRVTISCTGSSSNIGTGYAVHWYQQFPGTAPKLLIYGNNNRPSGVPDRFSGSKSGTSASLAITGLQAEDEADYYCQSYDSRLSGWVFGGGTKLTVLG
notes: fully human XenoMouse monoclonal antibody; bin 1; also called Alexa647-labelled 4A9
binds: [3] | [4]

B4: anti-CDH19 antibody 13880 (clone 25F8) (antibody, human IgG1, lambda, V domains shown)
VH: QVQLVQSGAEVKKPGASVKVSCKASGYTFTSYYIHWVRQAPGQGLEWMGIINPSGGSTRYAQKFQGRVTMTRDTSTSTVFMELSSLRSEDTAVYYCARGGIQLWLHFDYWGQGTLVTVSS
VL: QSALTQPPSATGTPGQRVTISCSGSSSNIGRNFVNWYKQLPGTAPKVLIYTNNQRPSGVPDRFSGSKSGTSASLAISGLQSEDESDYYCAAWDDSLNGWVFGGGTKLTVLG
notes: fully human XenoMouse monoclonal antibody; bin 2
binds: [3] | [4]

B5: anti-CDH19 antibody 13882 (clone 26D1) (antibody, human IgG1, lambda, V domains shown)
VH: B4 VH with G26R, I34M, H35S, N52H, S57D, R59T, R72G, F80Y, Q102K
VL: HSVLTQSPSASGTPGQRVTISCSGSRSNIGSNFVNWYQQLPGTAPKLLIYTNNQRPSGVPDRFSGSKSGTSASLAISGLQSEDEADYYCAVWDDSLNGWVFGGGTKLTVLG
notes: as for B4
binds: [3] | [4]

B6: anti-CDH19 antibody 13590 (clone 4B10) (antibody, V domains shown)
VH: QVQLVESGGGVVQPGRSLRLSCAASGFTFSSYDMHWVRQAPGKGLEWVAVISYDGTNEYYADSVKGRFTISRDTSKNTLYLQMNSLRAEDTAVYYCARERYFDWSFDYWGQGTLVSVSS
VL: EIVLTQSPGTLSLSPGERATLSCRASQSVSNTYLAWYHQRPGQAPRLLIYGASSRATGIPDRFSGSGSGTDFALTISSLEPEDFAVYYCQQYSNSWTFGQGTKVEIKR
notes: fully human XenoMouse monoclonal antibody; bin 4
binds: [2] | [7]
